Target: mouse MBL (mannose-binding lectin of mouse serum)

B1: recombinant mouse MASP-2 (rMASP-2) (protein)
chain: SKWPEPVFGRLVSPGFPEKYADHQDRSWTLTAPPGYRLRLYFTHFDLELSYRCEYDFVKLSSGTKVLATLCGQESTDTEQAPGNDTFYSLGPSLKVTFHSDYSNEKPFTGFEAFYAAEDVDECRVSLGDSVPCDHYCHNYLGGYYCSCRAGYILHQNKHTCSALCSGQVFTGRSGYLSSPEYPQPYPKLSSCTYSIRLEDGFSVILDFVESFDVETHPEAQCPYDSLKIQTDKGEHGPFCGKTLPPRIETDSHKVTITFATDESGNHTGWKIHYTSTARPCPDPTAPPNGSISPVQATYVLKDRFSVFCKTGFELLQGSVPLKSFTAVCQKDGSWDRPMPECSIIDCGPPDDLPNGHVDYITGPQVTTYKAVIQYSCEETFYTMSSNGKYVCEADGFWTSSKGEKLPPVCEPVCGLSTHTIGGRIVGGQPAKPGDFPWQVLLLGQTTAAAGALIHDNWVLTAAHAVYEKRMAASSLNIRMGILKRLSPHYTQAWPEEIFIHEGYTHGAGFDNDIALIKLKNKVTINGSIMPVCLPRKEAASLMRTDFTGTVAGWGLTQKGLLARNLMFVDIPIADHQKCTTVYEKLYPGVRVSANMLCAGLETGGKDSCRGDSGGALVFLDNETQRWFVGGIVSWGSINCGAAGQYGVYTKVINYIPWNENIISNF
  C4 deposition on mannan-coated wells (sMAP-/- mouse serum): the amount of C4 was restored by up to 46% of that of wild-type serum in a dose-dependent manner and reached a plateau
